Assay results as given in patent US20230106247A1 (L AND L BIO CO LTD NINGBO CHINA, published 2023).

How the values were obtained:
human Sirpα-V1-his [1] = target: T1, human Sirpα-V1-his (human, UniProt P78324 31-373); assay: blocking ELISA, competitor CD47-hFc
T1 construct: range 31-373; Bought (Sino Biological 11612-H08H) or expressed in-house; also called hSirpα-V1; hSirpα-V1-his
Experimental: (§1) The antigens PD-1 and Sirpα expressed according to the method of Example 1 were diluted with a PBS buffer at pH7.4 to a concentration of 2 μg/mL, added into a 96-well ELISA plate (Corning, CLS3590-100EA) at a volume of 50 μL/well, and incubated at 37° C. for 2 hours. After the liquid was discarded, the wells were added with a blocking solution of 5% skimmed milk (Sangon Biotech (Shanghai) Co., Ltd., A600669-0250) formulated with PBS at 200 μL/well, and incubated at 37° C. for 3 hours for blocking. […] The plate was washed with PBST for 5 times, added with 50 μL/well of HRP-labeled secondary antibody (GenScript Biotechnology Co., Ltd., M00091) diluted at 1:1000, and incubated at 37° C. for 1 hour. The plated was washed with PBST for 5 times, then added with 50 μl/well of TMB chromogenic substrate (KPL, 52-00-03), incubated at room temperature for 5-10 min, added with 50 μl/well of 1 M H₂SO₄ to stop the reaction, and read by a […] Go microplate reader (ThermoFisher, 51119200) for the absorbance value at 450 nm, and then IC₅₀ was calculated according to the OD value.

human Sirpα-V1-hFc = target: T2, human Sirpα-V1-hFc (human, UniProt P78324 31-373); assay: blocking ELISA, competitor CD47-his
T2 construct: range 31-373; also called hSirpα (dimer); hSirpα-V1-hFc (dimer); not shown: human IgG1 Fc region at the C-terminus
Experimental: as §1

[2] = target: T3, human PD-1 (recombinant, hFc/his tag) (human, UniProt Q15116 21-167); assay: blocking ELISA, competitor PD-L1
T3 construct: not shown: hFc or his tag
Experimental: as §1

[3] = target: T3, human PD-1 (recombinant, hFc/his tag); assay: ELISA
Experimental: (§2) The self-expressed human PD-1, Sirpα and the like antigens of the present disclosure were diluted with a PBS buffer at pH7.4 to a concentration of 2 μg/mL according to different assays, and then added into a 96-well ELISA plate (Corning, CLS3590-100EA) at a volume of 50 μL/well, and placed in an incubator at 37° C. for 2 hours. After the liquid was discarded, the wells were added with a blocking solution of 5% skimmed milk (Sangon Biotech (Shanghai) Co., Ltd., A600669-0250) diluted with PBS at 200 μL/well, and incubated in an incubator at 37° C. for 3 hours, or placed overnight at 4° C. (for 16-18 hours) for blocking. The blocking solution was discarded, and the plate was washed with a PBST buffer (pH7.4 PBS containing 0.05% tween-20) for 5 times, then added with 50 μL/well of 5-fold serial dilution of the antibody to be tested in 1% BSA, and incubated at 37° C. for 1 hour. […] The plated was washed with PBST for 5 times, then added with 50 μL/well of TMB chromogenic substrate (KPL, 52-00-03), incubated at room temperature for 5-10 min, added with 50 μL/well of 1 M H₂SO₄ to stop the reaction, and read by a […] Go microplate reader (ThermoFisher, 51119200) for the absorbance value at 450 nm, and then EC₅₀ was calculated according to the OD value.
(§3) The aforementioned bispecific antibodies were cloned, expressed and purified according to the cloning, expression and purification methods of Example 1 of the present disclosure.

human Sirpα-V1-his [4] = target: T1, human Sirpα-V1-his; assay: ELISA
Experimental: as §2, §3

Binder	IC50 (human Sirpα-V1-his [1]) [nM]	IC50 (human Sirpα-V1-hFc) [nM]	IC50 [2] [nM]	EC50 [3] [nM]	EC50 (human Sirpα-V1-his [4]) [nM]
bispecific antibody LB503 (bispecific antibody, human IgG4 S228P, kappa, mab14-h16 scFv at the C-terminus of the Pem light chain) light: EIVLTQSPATLSLSPGERATLSCRASKGVSTSGYSYLHWYQQKPGQAPRLLIYLASYLESGVPARFSGSGSGTDFTLTISSLEPEDFAVYYCQHSRDLPLTFGGGTKVEIKRTVAAPSVFIFPPSDEQLKSGTASVVCLLNNFYPREAKVQWKVDNALQSGNSQESVTEQDSKDSTYSLSSTLTLSKADYEKHKVYACEVTHQGLSSPVTKSFNRGECAGGGGSGGGGSGGGGSQVQLVQSGAEVKKPGASVKVSCKASGYNFNIYWINWVRQAPGQGLEWIGNIYPSSISTNYNEKFKTRATLTVDKSTSTVYMELSSLRSEDTAVYYCARSEGTYYGGRYEGDWFGYWGQGTLVTVSSGGGGSGGGGSGGGGSDIQMTQSPSSLSASVGDRVTITCRASQDIRNYLNWYQQKPGKAPKLLIYFTSTLHSGVPSRFSGSGSGTDFTLTISSLQPEDFATYYCQQGNTLPWTFGGGTKVEIK heavy: not shown	7.63	4.8	1.45	0.063	0.075
bispecific antibody LB504 (bispecific antibody, human IgG4 S228P, kappa, mab14-h16 scFv at the C-terminus of the Pem heavy chain) light: EIVLTQSPATLSLSPGERATLSCRASKGVSTSGYSYLHWYQQKPGQAPRLLIYLASYLESGVPARFSGSGSGTDFTLTISSLEPEDFAVYYCQHSRDLPLTFGGGTKVEIKRTVAAPSVFIFPPSDEQLKSGTASVVCLLNNFYPREAKVQWKVDNALQSGNSQESVTEQDSKDSTYSLSSTLTLSKADYEKHKVYACEVTHQGLSSPVTKSFNRGEC heavy: not shown	6.63	4.62	1.09	0.061	0.055

Binders with a lower IC50 (human Sirpα-V1-his [1]), results first:

IC50 (human Sirpα-V1-his [1]) [nM]	IC50 (human Sirpα-V1-hFc) [nM]	IC50 [2] [nM]	EC50 [3] [nM]	EC50 (human Sirpα-V1-his [4]) [nM]	Binder
5.42	2.55	1.3	0.075	0.059	bispecific antibody LB501 (bispecific antibody, human IgG4 S228P, kappa, mab14-h16 scFv at the N-terminus of the Pem light chain) light: DIQMTQSPSSLSASVGDRVTITCRASQDIRNYLNWYQQKPGKAPKLLIYFTSTLHSGVPSRFSGSGSGTDFTLTISSLQPEDFATYYCQQGNTLPWTFGGGTKVEIKGGGGSGGGGSGGGGSQVQLVQSGAEVKKPGASVKVSCKASGYNFNIYWINWVRQAPGQGLEWIGNIYPSSISTNYNEKFKTRATLTVDKSTSTVYMELSSLRSEDTAVYYCARSEGTYYGGRYEGDWFGYWGQGTLVTVSSGGGGSGGGGSGGGGSEIVLTQSPATLSLSPGERATLSCRASKGVSTSGYSYLHWYQQKPGQAPRLLIYLASYLESGVPARFSGSGSGTDFTLTISSLEPEDFAVYYCQHSRDLPLTFGGGTKVEIKRTVAAPSVFIFPPSDEQLKSGTASVVCLLNNFYPREAKVQWKVDNALQSGNSQESVTEQDSKDSTYSLSSTLTLSKADYEKHKVYACEVTHQGLSSPVTKSFNRGEC heavy: not shown
5.37	3.78	2	0.074	0.066	bispecific antibody LB502 (bispecific antibody, human IgG4 S228P, kappa, mab14-h16 scFv at the N-terminus of the Pem heavy chain) light: EIVLTQSPATLSLSPGERATLSCRASKGVSTSGYSYLHWYQQKPGQAPRLLIYLASYLESGVPARFSGSGSGTDFTLTISSLEPEDFAVYYCQHSRDLPLTFGGGTKVEIKRTVAAPSVFIFPPSDEQLKSGTASVVCLLNNFYPREAKVQWKVDNALQSGNSQESVTEQDSKDSTYSLSSTLTLSKADYEKHKVYACEVTHQGLSSPVTKSFNRGEC heavy: not shown
